Experimental data published in PMC3105389.
Like-named read-outs stand apart in the source and are kept apart here.

Legend:
[1] = biological target: T1, MobMN199 (MobM relaxase domain) (Streptococcus plasmid pMV158 (plasmid …, UniProt P13925 1-199)); assay: EMSA
T1 sequence: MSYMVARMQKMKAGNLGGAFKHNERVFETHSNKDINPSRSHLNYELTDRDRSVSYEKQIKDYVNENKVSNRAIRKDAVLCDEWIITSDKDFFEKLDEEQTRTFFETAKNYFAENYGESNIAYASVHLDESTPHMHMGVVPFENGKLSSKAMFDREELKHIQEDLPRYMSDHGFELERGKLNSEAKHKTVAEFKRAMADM

[2] = biological target: T1, MobMN199 (MobM relaxase domain); assay: competition
[3] = biological target: T1, MobMN199 (MobM relaxase domain); assay: competition; remark: listed apart in the source
[4] = biological target: T1, MobMN199 (MobM relaxase domain); assay: competition; remark: listed apart in the source

B1: IR3 32-mer (ssDNA)
DNA: GCACACACTTTATGAATATAAAGTATAGTGTG
Kd [1]: 60 ± 7 nM

B2: IR1+8 26-mer (ssDNA)
DNA: ACTTTATGAATATAAAGTATAGTGTG
binding result [2]: binds

B3: IR1 18-mer (ssDNA)
DNA: ACTTTATGAATATAAAGT
binding result [3]: no binding

B4: IR1-R 11-mer (ssDNA)
DNA: GAATATAAAGT
binding result [4]: no binding

B5: IR3-L 15-mer (ssDNA)
DNA: GCACACACTTTATGA
binding result [4]: no binding

B6: IR2 24-mer (ssDNA)
DNA: TAAAGTATAGTGTGTTATACTTTA
binding result [4]: no binding

B7: 10-NIC 10-mer (ssDNA)
DNA: GTATAGTGTG
binding result [3]: no binding

B8: ORIT 42-mer (ssDNA)
DNA: GCACACACTTTATGAATATAAAGTATAGTGTGTTATACTTTA
Kd [1]: 58 ± 6 nM
